Data on two molecules can be found in patent publication US20110311499A1 (University of Washington, published 2011).

For experiment [1], the target named is T1, Tse3-His6 (purified Tse3, PA3484, with C-terminal hexahistidine tag) (Pseudomonas aeruginosa PAO1, UniProt Q9HYC5 1-408).
T1 construct: not shown: C-terminal hexahistidine tag (six His) from pET29b+
T1 sequence: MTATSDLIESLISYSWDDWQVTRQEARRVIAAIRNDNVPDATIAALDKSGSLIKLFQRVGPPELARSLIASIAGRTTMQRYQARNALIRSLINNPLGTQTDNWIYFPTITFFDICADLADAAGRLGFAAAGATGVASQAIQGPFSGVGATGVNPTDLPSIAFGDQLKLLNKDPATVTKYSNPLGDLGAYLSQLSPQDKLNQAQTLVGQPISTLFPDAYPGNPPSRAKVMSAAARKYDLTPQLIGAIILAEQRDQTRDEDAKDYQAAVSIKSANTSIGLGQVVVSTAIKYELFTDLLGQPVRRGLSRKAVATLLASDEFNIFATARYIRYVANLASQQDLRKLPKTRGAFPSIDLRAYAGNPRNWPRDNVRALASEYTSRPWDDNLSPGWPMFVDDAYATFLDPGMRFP
Nature of the experiment: co-immunoprecipitation (FIG. 17a).

The target in experiment [2] is T2, Tse1-His6 (purified Tse1, PA1844, with C-terminal hexahistidine tag) (Pseudomonas aeruginosa PAO1, UniProt Q9I2Q1 1-154).
T2 construct: not shown: C-terminal hexahistidine tag (six His) from pET29b+
T2 sequence: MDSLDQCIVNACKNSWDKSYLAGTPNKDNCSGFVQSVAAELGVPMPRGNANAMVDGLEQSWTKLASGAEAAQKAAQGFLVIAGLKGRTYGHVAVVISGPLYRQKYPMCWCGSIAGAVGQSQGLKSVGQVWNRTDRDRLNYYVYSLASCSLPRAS
The experiment in a line: co-immunoprecipitation (FIG. 17a).

B1: Tsi3-V (type VI secretion immunity protein 3 fused to the VSV-G epitope) (other)
chain: CTAESGVDFDKTLTHPNGLVVERPVGFDARRSAEGFRFDEGGKLRNPRQLEVQRQDAPPPPDLASRRLGDGEARYKVEEDDGGSAGSEYRLWAAKPAGARWIVVSASEQSEDGEPTFALAWALLERARLQ
On to B1, for which, in experiment [1], the binding result was “binds”.

B2: Tsi1-V (type VI secretion immunity protein 1 fused to the VSV-G epitope) (other)
chain: ADCTFTQLEIVPQFGSPNMFGGEDEHVRVMFSNEDPNDDNPDAFPEPPVYLADRDSGNDCRIEDGGIWSRGGVFLSQDGRRVLMHEFSGSSAELVSYDSATCKVVHREDISGQRWAVDKDGLRLGQKCSGESVDSCAKIVKRSLAPFCQTAKK
As to B2, the binding result in experiment [2] is reported as “binds”.
